How the values were obtained:
[1] = biological target: soluble sc-DR2/MBP-Cκ fusion molecule (human kappa constant domain) from pDRHK-transfected CHO cells (human); assay: sandwich ELISA, L227 capture, L243-HRP probe; cell line CHOA5
[2] = biological target: soluble sc-DR2/MBP-Cκ fusion molecule (human kappa constant domain) from pDRHK-transfected CHO cells (human); assay: sandwich ELISA, L227 capture, L243-HRP probe; cell line CHOE 12
[3] = biological target: soluble sc-DR2/MBP-Cκ fusion molecule (human kappa constant domain) from pDRHK-transfected CHO cells (human); assay: sandwich ELISA, anti-human kappa capture, L243-HRP probe; cell line CHOA5
[4] = biological target: soluble sc-DR2/MBP-Cκ fusion molecule (human kappa constant domain) from pDRHK-transfected CHO cells (human); assay: sandwich ELISA, anti-human kappa capture, L243-HRP probe; cell line CHOE 12
[5] = biological target: sc-IA^d/OVA-Cκ fusion molecule (sc-IA^d/OVA fused to the mouse kappa constant domain), from pIADK-transfected NSO cells (murine; mouse); assay: cell-based or functional assay
[6] = biological target: sc-IA^d/gD (sc-IA^d fusion protein carrying the gD 246-261 peptide), from insect cells (HSV-1; murine); assay: cell-based or functional assay
[7] = biological target: soluble sc-IA^d/OVA produced in SF9 insect cells (baculovirus) (murine); assay: cell-based or functional assay
[8] = biological target: soluble sc-IA^d/OVA produced in SF9 insect cells (baculovirus) (murine); assay: IA^d-specific sandwich ELISA, M5/114 capture, biotin-AMS-32.1 probe; sc-IA^d/OVA from insect cell culture (positive control)
[9] = biological target: soluble sc-IA^d/OVA secreted by SCE1-transfected NSO cells (murine); assay: IA^d-specific sandwich ELISA, M5/114 capture, biotin-AMS-32.1 probe; undiluted culture supernatant of E10 (SCE1 transfectant)
[10] = biological target: soluble sc-IA^d/OVA secreted by SCE1-transfected NSO cells (murine); assay: IA^d-specific sandwich ELISA, M5/114 capture, biotin-AMS-32.1 probe; undiluted culture supernatant of E11 (SCE1 transfectant)

soluble sc-DR2/MBP-Cκ fusion molecule (human kappa constant domain) from pDRHK-transfected CHO cells (human), sequence (P02686 other isoform, or with tags, fused parts or gaps): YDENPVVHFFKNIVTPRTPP

In the case of L243 mAb (ATCC HB-55) (antibody), the ELISA Readings (Absorbance) [1] is reported as 0.434, the ELISA Readings (Absorbance) [2] is reported as 0.245 and the ELISA Readings (Absorbance) [3] is reported as 1.45. For the same substance, the ELISA Readings (Absorbance) [4] was 1.06.
For “T-cell receptor of the murine T-cell hybridoma DO11.10 (TCR)”, the DO11.10 IL-2 Released (pg/well) [5] was 500 pg/well, the DO11.10 IL-2 Released (pg/well) [6] was 0 pg/well and the DO11.10 IL-2 Released (pg/well) [7] was 528 pg/well.
In the case of “anti-IA^d mAb AMS-32.1 (PharMingen) (antibody)”, the Absorbance [8] is reported as 2.44, the Absorbance [9] is reported as 0.781 and the Absorbance [10] is reported as 0.96.

From patent US7074905
